The target of data set [1] is T1, Recombinant human mature SLPI (Secretory leukocyte protease inhibitor) (human, UniProt P03973 26-132).
T1 construct: Bought from R&D Systems (product number 1274-PI-100); also called full length SLPI; full-length SLPI
The data set is described as follows: sandwich ELISA, hybridoma supernatant as capture, biotinylated anti-SLPI PAb BAF1274 as detector. On the procedure:
FIG. 4. Detection of C-SLPI in CF sputum samples. CF sputum samples were assayed via ELISA for the presence of C-SLPI using the supernatant from hybridoma clone C5.5 as a capture antibody. Standard curve generated by assaying known concentration of C-SLPI produced by incubation of recombinant SLPI with NE (A). C-SLPI concentrations in 63 sputum samples derived from CF patients as identified via ELISA using C5.5 as a capture antibody (B).
A Maxisorp plate (Nunc) was coated for 16 h at 4° C. with 100 μl/well hybridoma supernatant diluted 1:50 in Voller's reagent. Cell free hybridoma supernatants were acquired directly from individual cultures by centrifugation at 1,400 rpm for 5 min. The plate was blocked with 200 μl 1% BSA in PBST 0.05% (v/v) Tween 20 for 1 h at room temperature. Either a half concentration dilution series of 200 ng/ml to 3.125 ng/ml of both C-SLPI and SLPI (100 μl/well) in 1% BSA in PBST 0.05% (v/v) Tween 20 or CF sputum samples diluted 1:50 v/v in 1% BSA in PBST 0.05% (v/v) Tween 20 were added to the plate and incubated for 2 h at room temperature. Control wells received NE alone. […] The absorbance at 405 nm of wells was measured on a microtiter plate reader (Genios using Magellan software) and results were analyzed using GraphPad Prism version 6 (GraphPad Software).
A general note: An ELISA detects its analyte on a solid surface through an enzyme-linked reagent.

The target of data set [2] is T2, Recombinant human mature SLPI (Secretory leukocyte protease inhibitor).
T2 chain: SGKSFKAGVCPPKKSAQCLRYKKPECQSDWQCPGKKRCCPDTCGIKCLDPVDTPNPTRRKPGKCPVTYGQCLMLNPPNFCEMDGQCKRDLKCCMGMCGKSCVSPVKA

Here are results for 2 molecules from patent publication US20170212117A1 (RANDOX LABORATORIES, published 2017).

B1: C5.5 monoclonal antibody (supernatant of hybridoma clone C5.5) (antibody, V domains shown)
VH: EVQLVESGGGLVHPQGSLKLSCTASGFTFNTYDMNWVRQAPGKGLEWVARIRTKSYYYATYYADSVKDRFTISRDDSQTMLYLQLNNLKTEDTALYYCVRRSGNYGAMDYWGQGTSVTVSS
VL: QIVLTQSPAIMSASLGERVTMTCTASSSVSSSYLHWYQQKPGSSPKLWIYSTSNLASGVPARFSGSGSGTSYSLTISSMEAEDAATYYCHQYHRSPRTFGGGTKLEIK
notes: Used as cell-free hybridoma supernatant coated on the plate (capture antibody); also called C5.5 supernatant
B1: in data set [1], the binding result was “no binding (tested: 200 ng/ml to 3.125 ng/ml)”.

B2: Human neutrophil elastase (human sputum derived NE, Elastin Products SE563) (protein)
chain: IVGGRRARPHAWPFMVSLQLRGGHFCGATLIAPNFVMSAAHCVANVNVRAVRVVLGAHNLSRREPTRQVFAVQRIFENGYDPVNLLNDIVILQLNGSATINANVQVAQLPAQGRRLGNGVQCLAMGWGLLGRNRGIASVLQELNVTVVTSLCRRSNVCTLVRGRQAGVCFGDSGSPLVCNGLIHGIASFVRGGCASGLYPDAFAPVAQFVNWIDSIIQ
For B2, the “SLPI cleavage by NE (Western blot)” value in data set [2] was “Successful cleavage of SLPI was observed at molar ratios of 1:4, 1:8 and 1:10 SLPI to NE”.
